These results are taken from patent US20230212239A1, “INHIBITORS OF CBL AUTOINHIBITION AND RELATED METHODS” (THE HOSPITAL FOR SICK CHILDREN, priority 2020, published 2023).

Data set [1] deals with the molecule itself. The data set is described as follows: X-ray crystal structure; two SLAP2 helices in the asymmetric unit.
Data set [2] concerns the target T1, CBL (47-357), co-expressed from pETDuet-1 MCS2 (UniProt P22681 47-357).
T1 construct: range 47-357; Untagged partner in the Duet co-purification trials; also called CBL TKBD
T1 sequence (looked up): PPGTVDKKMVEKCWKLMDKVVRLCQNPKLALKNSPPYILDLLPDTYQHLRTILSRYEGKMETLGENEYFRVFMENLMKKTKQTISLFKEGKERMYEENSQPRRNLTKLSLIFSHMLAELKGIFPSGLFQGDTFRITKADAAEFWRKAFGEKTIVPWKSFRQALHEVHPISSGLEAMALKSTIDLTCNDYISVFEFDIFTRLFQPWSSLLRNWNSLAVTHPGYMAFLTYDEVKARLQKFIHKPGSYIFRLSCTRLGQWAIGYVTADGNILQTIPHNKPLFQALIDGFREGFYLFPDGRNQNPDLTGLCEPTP
The data set is described as follows: Ni-NTA co-purification from Duet co-expression, high salt (0.5 M NaCl), Coomassie SDS-PAGE. On the procedure:
(§1) Cell pellets were resuspended in either high or low salt (as for high salt except 25 mM HEPEs pH 7.5, 150 mM NaCl) lysis buffer and purified as above on Ni-NTA agarose (Qiagen) with wash buffer (25 mM HEPEs pH 7.5, 150 mM NaCl, 2% glycerol, 20 mM imidazole, 10 mM βME). Bead slurry was mixed with SDS 2X loading buffer (125 mM Tris pH 6.8, 4% SDS, 20% glycerol, 0.715 M βME, bromophenol blue), boiled, and analyzed by 10 or 12.5% SDS-PAGE, stained with Coomassie blue.

Data set [3] has as its target T2, CBL TKBD (Homo sapiens, UniProt P22681).
T2 construct: with CBL (47-357) cloned in frame into MCS2 of the same pETDuet-1 vector; made in house
T2 sequence (P22681 47-357): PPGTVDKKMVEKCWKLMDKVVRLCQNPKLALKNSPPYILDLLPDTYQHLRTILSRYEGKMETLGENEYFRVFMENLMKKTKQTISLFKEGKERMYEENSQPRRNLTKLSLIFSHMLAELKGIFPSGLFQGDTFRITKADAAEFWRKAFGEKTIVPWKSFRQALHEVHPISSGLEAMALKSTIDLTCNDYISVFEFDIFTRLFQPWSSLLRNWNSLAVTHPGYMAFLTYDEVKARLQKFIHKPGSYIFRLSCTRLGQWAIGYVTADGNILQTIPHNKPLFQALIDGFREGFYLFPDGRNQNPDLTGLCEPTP
The data set is described as follows: Co-purification of CBL TKBD with Trx-His-SLAP2/SLAP (Duet co-expression, Ni-NTA, SDS-PAGE). It counts as binding. Conditions: conditions where SLAP2 was tyrosine phosphorylated (TKB1), low salt.
Excerpt: (§2) To validate the CBL/SLAP2 binding interface, a series of mutants in a Duet co-expression vector system was generated for co-purification trials. The SLAP2 sequence was preceded by thioredoxin (Trx) and His-tag fusion proteins to allow co-purification of CBL TKBD that was bound to Trx-His-SLAP2 during the initial affinity chromatography purification step. Surface residues deemed to be important to the CBL/SLAP2 interface, but not CBL function or folding, were mutated to disrupt CBL/SLAP2 binding (FIG. 5C and FIG. 6). In our structure, SLAP2 Gly240 locates close to CBL Met269 and Ala270, such that mutation to a bulky Arg residue (G240R) could cause sterical constraints. Similarly, SLAP2 Leu241 is situated in a hydrophobic cleft composed of CBL Ala223, Trp258, and Val263; mutation to Arg (L241R) was predicted to disturb this binding pocket. Mutation of CBL Ala223 to Arg (A223R) would likewise disrupt this pocket, with CBL/SLAP2 double mutant A223R/L241R predicted to drastically disturb binding through sterical constraints and charge repulsion. (For clarity, CBL mutations herein are indicated in italics, SLAP2 in regular font.) Similarly, single or double mutation of CBL Ser226 or SLAP2 Ser244, whose side chain hydroxyl groups are in close proximity to one another, to charged Glu residues (S226E and S244E) was anticipated to interfere with CBL/SLAP2 binding. Finally, given that SLAP2 binds CBL as an α-helix, mutation of Leu245, located in the center of this α-helix, to proline (L245P) was expected to interrupt the helical structure and thus prevent SLAP2 binding. […] However, double mutation of the CBL/SLAP2 interface (A223R/L241R and S226E/S244E; FIG. 5D, lower panel) was not tolerated, even at low salt concentration.
as §1, with “For co-purification of CBL and SLAP2/SLAP, Duet-His-hSLAP2-CBL 29-261 Δ198-229 and 29-254 Δ198-229, Duet-His-Δlinker-hSLAP2-CBL WT and point mutants, and Duet-His-mSLAP-CBL WT and point mutants were overexpressed in E. coli BL-21 as above or TKB1 competent cells (Stratagene) as per manufacturer’s instructions, and cells harvested as above (except 100 mL of LB, overnight at 16-18° C., and 0.35-0.5 mM IPTG induction). Cell” for “Cell”

Data set [4] concerns the target T3, CBL TKBD-LHR-RING (2-436), unphosphorylated (Homo sapiens, UniProt P22681).
T3 construct: GST (N, cleaved yes); made in house; host or cells: E. coli BL-21
T3 sequence (P22681 2-436): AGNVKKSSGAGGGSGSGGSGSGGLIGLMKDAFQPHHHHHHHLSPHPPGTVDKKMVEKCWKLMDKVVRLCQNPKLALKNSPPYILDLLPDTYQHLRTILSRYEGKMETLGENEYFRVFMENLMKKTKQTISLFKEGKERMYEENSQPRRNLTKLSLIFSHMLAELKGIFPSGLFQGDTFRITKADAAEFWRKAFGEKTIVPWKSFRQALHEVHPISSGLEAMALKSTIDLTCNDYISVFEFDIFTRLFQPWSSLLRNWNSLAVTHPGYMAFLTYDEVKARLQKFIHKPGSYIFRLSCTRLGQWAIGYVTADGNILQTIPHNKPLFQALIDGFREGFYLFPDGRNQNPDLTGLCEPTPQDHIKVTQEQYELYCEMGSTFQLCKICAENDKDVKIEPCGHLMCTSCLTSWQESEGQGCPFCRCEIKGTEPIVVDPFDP
In words: In vitro ubiquitination assay, anti-ubiquitin immunoblot. It counts as biochemical. Conditions: anti-Ub immunoblot and E3LITE (FIGS. 11A,B, 10B-D). An excerpt: Given that binding of SLAP2 and the LHR-RING would be mutually exclusive (FIG. 8C), we reasoned that binding of SLAP2 to CBL could displace the LHR-RING, thereby promoting the catalytically competent conformation. To test this hypothesis, an in vitro ubiquitination assay in which E3 ligase activity is detected by a smear at high molecular weight on an anti-ubiquitin (Ub) immunoblot was employed. […] To further compare and quantify CBL ubiquitin ligase activity, a chemiluminescence based assay which measures the total amount of polyubiquitylated products formed in an in vitro reaction was used. In this assay, production of polyubiquitylated proteins increased upon addition of SLAP2 or pSLAP2 to CBL, compared to CBL alone (FIG. 9C and FIG. 10A).
In vitro ubiquitination reactions were prepared with 20 pmol of CBL or pCBL and 60 pmol of hSLAP2 or phosphorylated hSLAP2 (pSLAP2) for both WT and mutants. Reagents were thawed and reactions prepared on ice. CBL and SLAP2 were mixed in PBS (with 5 mM βME, 5 mM caproic acid, 0.5 mM PMSF, and 0.5 mM Na3VO4) at rt for 5-10 min before addition of master mix (42 pmol E1 (UBE1, Boston Biochem or Ubiquitin-Proteasome Biotechnologies), 0.1 µmol E2 (UbcH5b/UBE2D2, Boston Biochem #E2-622), […], and 11.6 µmol ubiquitin (Boston Biochem #U-100H) in reaction buffer (0.2 M Tris pH 7.5, 10 mM MgCl2, 2 mM DTT). Reactions were incubated at 30° C. shaking at 500-700 rpm for 60-110 minutes and terminated by addition of SDS 2X loading buffer and boiling for 5-10 minutes. Equal volumes of each reaction were loaded on 12.5% SDS-PAGE gel, transferred to PVDF membrane, and immunoblotted for ubiquitin as per standard protocols (anti-ubiquitin antibody P4G7, BioLegend #838701, 1:1000; anti-mouse IgG HRP-linked antibody, Cell Signaling Technology #7076, 1:10000; Western Lightning Plus ECL, Perkin Elmer).

Data set [5] has as its system CBL TKBD. In words: Co-purification of CBL TKBD with Trx-His-SLAP2/SLAP (Duet co-expression, Ni-NTA, SDS-PAGE). It counts as binding. The settings on record: low salt concentration (0.15 M NaCl).
Excerpt: as §2
as §1, with “For co-purification of CBL and SLAP2/SLAP, Duet-His-hSLAP2-CBL 29-261 Δ198-229 and 29-254 Δ198-229, Duet-His-Δlinker-hSLAP2-CBL WT and point mutants, and Duet-His-mSLAP-CBL WT and point mutants were overexpressed in E. coli BL-21 as above or TKB1 competent cells (Stratagene) as per manufacturer’s instructions, and cells harvested as above (except 100 mL of LB, overnight at 16-18° C., and 0.35-0.5 mM IPTG induction). Cell” for “Cell”

B1: mouse SLAP2 (residues 28-259) (other, UniProt Q8R4L0 28-259, looked up)
chain: QPERHKVTAVALGSFPAGEQARLSLRLGEPLTIISEDGDWWTVQSEVSGREYHMPSVYVAKVAHGWLYEGLSREKAEELLLLPGNPGGAFLIRESQTRRGCYSLSVRLSRPASWDRIRHYRIQRLDNGWLYISPRLTFPSLHALVEHYSELADGICCPLREPCVLQKLGPLPGKDTPPPVTVPTSSLNWKKLDRSLLFLEAPASGEASLLSEGLRESLSSYISLAEDPLDDA
notes: range 28-259; Trx-His(6) tag removed with thrombin; In the crystal only residues 237-255 are seen; also called mSLAP2; Trx-His(6)-mSLAP2 (before thrombin cleavage)
As to B1, the binding result in data set [1] was “binds”.

B2: Trx-His(6)-Δlinker-hSLAP2 L245P (other)
chain: EAERSKATAVALGSFPAGGPAELSLRLGEPLTIVSEDGDWWTVLSEVSGREYNIPSVHVAKVSHGWLYEGLSREKAEELLLLPGNPGGAFLIRESQTRRGSYSLSVRLSRPASWDRIRHYRIHCLDNGWLYISPRLTFPSLQALVDHYSELADDICCLLKEPCVLQRAGPLPGKDIPLPVTVQRTPLNWKELDSSLLFSEAATGEESLLSEGLRESPSFYISLNDEAVSLDDA
notes: Point mutant within Duet-His-Δlinker-hSLAP2-CBL; not shown: N-terminal Trx-His(6)-TEV site fusion of the modified pET32a (Δlinker form)
In the case of B2, in data set [2], the binding result is recorded as “no binding”.

B3: SLAP2 Y248F: SLAP2 Tyr248 to Phe mutant, expressed under phosphorylating conditions (protein)
chain: EAERSKATAVALGSFPAGGPAELSLRLGEPLTIVSEDGDWWTVLSEVSGREYNIPSVHVAKVSHGWLYEGLSREKAEELLLLPGNPGGAFLIRESQTRRGSYSLSVRLSRPASWDRIRHYRIHCLDNGWLYISPRLTFPSLQALVDHYSELADDICCLLKEPCVLQRAGPLPGKDIPLPVTVQRTPLNWKELDSSLLFSEAATGEESLLSEGLRESLSFFISLNDEAVSLDDA
modifications: left off: large carriers; small tags and cut ends
notes: SLAP2 Tyr248 to Phe mutant, expressed under phosphorylating conditions
On to B3, for which, in data set [3], the “CBL TKBD co-purification” value is “co-purified”.

B4: SLAP2 R242A: SLAP2 mutant in the SLAP2/SLAP2 interface (protein)
chain: EAERSKATAVALGSFPAGGPAELSLRLGEPLTIVSEDGDWWTVLSEVSGREYNIPSVHVAKVSHGWLYEGLSREKAEELLLLPGNPGGAFLIRESQTRRGSYSLSVRLSRPASWDRIRHYRIHCLDNGWLYISPRLTFPSLQALVDHYSELADDICCLLKEPCVLQRAGPLPGKDIPLPVTVQRTPLNWKELDSSLLFSEAATGEESLLSEGLAESLSFYISLNDEAVSLDDA
modifications: left off: large carriers; small tags and cut ends
notes: SLAP2 mutant in the SLAP2/SLAP2 interface
In the case of B4, the “stimulation/activation of CBL ubiquitination activity by SLAP2 mutants versus WT” value in data set [4] is on record as “did not alter SLAP2 or pSLAP2 activation of CBL”. Moreover, the “CBL TKBD co-purification” value in data set [5] is “did not significantly impact co-purification of CBL”.

B5: SLAP2 S246/250E: SLAP2 double mutant in the SLAP2/SLAP2 interface (protein)
chain: EAERSKATAVALGSFPAGGPAELSLRLGEPLTIVSEDGDWWTVLSEVSGREYNIPSVHVAKVSHGWLYEGLSREKAEELLLLPGNPGGAFLIRESQTRRGSYSLSVRLSRPASWDRIRHYRIHCLDNGWLYISPRLTFPSLQALVDHYSELADDICCLLKEPCVLQRAGPLPGKDIPLPVTVQRTPLNWKELDSSLLFSEAATGEESLLSEGLRESLEFYIELNDEAVSLDDA
modifications: left off: large carriers; small tags and cut ends
notes: SLAP2 double mutant in the SLAP2/SLAP2 interface
As for B5, in data set [4], the “stimulation/activation of CBL ubiquitination activity by SLAP2 mutants versus WT” value was “did not alter SLAP2 or pSLAP2 activation of CBL”. Also, the “CBL TKBD co-purification” value in data set [5] is reported as “did not significantly impact co-purification of CBL”.

B6: SLAP2 I249W: SLAP2 mutant in the SLAP2/SLAP2 interface (protein)
chain: EAERSKATAVALGSFPAGGPAELSLRLGEPLTIVSEDGDWWTVLSEVSGREYNIPSVHVAKVSHGWLYEGLSREKAEELLLLPGNPGGAFLIRESQTRRGSYSLSVRLSRPASWDRIRHYRIHCLDNGWLYISPRLTFPSLQALVDHYSELADDICCLLKEPCVLQRAGPLPGKDIPLPVTVQRTPLNWKELDSSLLFSEAATGEESLLSEGLRESLSFYWSLNDEAVSLDDA
modifications: left off: large carriers; small tags and cut ends
notes: as for B4
B6: in data set [4], the “stimulation/activation of CBL ubiquitination activity by SLAP2 mutants versus WT” value is on record as “did not alter SLAP2 or pSLAP2 activation of CBL”. Moreover, the “CBL TKBD co-purification” value in data set [5] is recorded as “did not significantly impact co-purification of CBL”.
